Substitutions are numbered along the chain they refer to. Numbers in names are those of the source.
Columns and labels:
[1] = tested on: Lenti-X 293T cells; assay: YFP fluorescence quenching anion reporter plate reader assay of engineered receptors stimulated with acetylcholine or a non-native ligand; assay type: cell-based; details: for percent quench of YFP fluorescence, 30 nM TC-6683: TC-6683 30 nM; for percent quench of YFP fluorescence, 300 nM TC-6683: TC-6683 300 nM; for percent quench of YFP fluorescence, 3 uM TC-6683: TC-6683 3 uM; for percent quench of YFP fluorescence, 30 uM TC-6683: TC-6683 30 uM; for percent quench of YFP fluorescence, 100 uM TC-6683: TC-6683 100 uM; for percent quench of YFP fluorescence, 100 uM ach: acetylcholine 100 uM; for percent quench of YFP fluorescence, 300 uM ach: acetylcholine 300 uM; for percent quench of YFP fluorescence, 500 uM ach: acetylcholine 500 uM; for percent quench of YFP fluorescence, 1 mM ach: acetylcholine 1 mM; for percent quench of YFP fluorescence, 3 mM ach: acetylcholine 3 mM; for percent quench of YFP fluorescence, 10 mM ach: acetylcholine 10 mM
Summary of the method: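 Lenti-X 293T cells carrying a YFP anion reporter were transiently transfected with channel DNA and assayed the next day in HEPES-buffered ECS at pH 7.2. Ligand (acetylcholine or non-native ligand) was added in NaI-substituted ECS. Percent quench was the mean of the last 10 s relative to the 15 s pre-addition baseline.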

[2] = tested on: rat DRG neurons; assay: Rheobase shift and evoked action potentials in rat DRG neurons (current clamp); assay type: cell-based; details: for Rheobase Shift; Rat DRG Neurons, Baseline: no ligand
Summary of the method: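 Rat DRG neurons expressing engineered receptors, whole-cell current clamp at RT. ECS at pH 7.3; K-gluconate internal at pH 7.2. 500 ms steps from −200 to 700 pA with and without ligand. Rheobase taken as the smallest depolarising step that fires an action potential; input resistance from negative steps.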

B1: CODA1045: engineered chimeric LGIC receptor, R101W, Y210V in SEQ ID NO: 33 (protein)
chain: MRCSPGGVWLALAASLLHVSLQGEFQRKLYKELVKNYNPLERPVANDSQPLTVYFSLSLLQIMDVDEKNQVLTTNIWLQMSWTDHYLQWNVSEYPGVKTVWFPDGQIWKPDILLYNSADERFDATFHTNVLVNSSGHCQYLPPGIFKSSCPMDLKNFPMDVQTCKLKFGSWSYGGWSLDLQMQEADISGYIPNGEWDLVGIPGKRSERFVECCKEPYPDVTFTVTMRRRMGYYLIQMYIPSLLIVILSWISFWINMDAAPARVGLGITTVLTMTTQSSGSRASLPKVSYVKAIDIWMAVCLLFVFSALLEYAAVNFVSRQHKELLRFRRKRRHHKSPMLNLFQEDEAGEGRFNFSAYGMGPACLQAKDGISVKGANNSNTTNPPPAPSKSPEEMRKLFIQRAKKIDKISRIGFPMAFLIFNMFYWIIYKIVRREDVHNQ
modifications: synthetic sequence of chimeric LGIC
YFP fluorescence quenching using CNL001 ([1]; 1 nM CNL001, first column): 0.804%
YFP fluorescence quenching using CNL001 ([1]; 1 nM CNL001, second column): 11.275%
YFP fluorescence quenching using TC-5619/Bradanicline ([1]; 1 nM brd): −1.431%
YFP fluorescence quenching using TC-5619/Bradanicline ([1]; 3 nM brd): −14.993%
YFP fluorescence quenching using Varenicline ([1]; 3 nM var, first column): 6.745
YFP fluorescence quenching using Varenicline ([1]; 3 nM var, second column): 8.397
YFP fluorescence quenching using CNL001 ([1]; 10 nM CNL001, first column): 15.843%
YFP fluorescence quenching using CNL001 ([1]; 10 nM CNL001, second column): 16.619%
YFP fluorescence quenching using TC-5619/Bradanicline ([1]; 10 nM brd): −5.52%
YFP fluorescence quenching using TC-5619/Bradanicline ([1]; 30 nM brd): 15.49%
YFP fluorescence quenching using Varenicline ([1]; 30 nM var, first column): 14.1
YFP fluorescence quenching using Varenicline ([1]; 30 nM var, second column): 19.095
YFP fluorescence quenching using CNL001 ([1]; 50 nM CNL001, first column): 15.205%
YFP fluorescence quenching using CNL001 ([1]; 50 nM CNL001, second column): 18.771%
YFP fluorescence quenching using ABT-126 ([1]; 50 nM abt): −24.16%
YFP fluorescence quenching using CNL001 ([1]; 100 nM CNL001, first column): 9.332%
YFP fluorescence quenching using CNL001 ([1]; 100 nM CNL001, second column): 18.218%
YFP fluorescence quenching using ABT-126 ([1]; 100 nM abt): −24.7%
YFP fluorescence quenching using TC-5619/Bradanicline ([1]; 100 nM brd): 72.105%
YFP fluorescence quenching using ABT-126 ([1]; 300 nM abt): −16.09%
YFP fluorescence quenching using TC-5619/Bradanicline ([1]; 300 nM brd): 71.411%
YFP fluorescence quenching using Varenicline ([1]; 300 nM var, first column): 16.83
YFP fluorescence quenching using Varenicline ([1]; 300 nM var, second column): 21.507
YFP fluorescence quenching using Varenicline ([1]; 500 nM var, first column): 21.586
YFP fluorescence quenching using Varenicline ([1]; 500 nM var, second column): 23.131
YFP fluorescence quenching using CNL001 ([1]; 1 uM CNL001, first column): 35.294%
YFP fluorescence quenching using CNL001 ([1]; 1 uM CNL001, second column): 36.542%
YFP fluorescence quenching using ABT-126 ([1]; 1 uM abt): −11.61%
YFP fluorescence quenching using Varenicline ([1]; 1 uM var, first column): 31.591
YFP fluorescence quenching using Varenicline ([1]; 1 uM var, second column): 26.479
percent quench of YFP fluorescence, 30 nM TC-6683 [1]: 1.735%
percent quench of YFP fluorescence, 300 nM TC-6683 [1]: 0.642%
percent quench of YFP fluorescence, 3 uM TC-6683 [1]: 2.403%
percent quench of YFP fluorescence, 30 uM TC-6683 [1]: 6.006%
percent quench of YFP fluorescence, 100 uM TC-6683 [1]: −4.277%
percent quench of YFP fluorescence, 10 uM ach ([1]; acetylcholine 10 uM): −2.52%
percent quench of YFP fluorescence, 100 uM ach [1]: −11.98%
percent quench of YFP fluorescence, 300 uM ach [1]: −16.71%
percent quench of YFP fluorescence, 500 uM ach [1]: −12.87%
percent quench of YFP fluorescence, 1 mM ach [1]: −14.41%
percent quench of YFP fluorescence, 3 mM ach [1]: −7.4%
percent quench of YFP fluorescence, 10 mM ach [1]: −1.5%
Rheobase Shift; Rat DRG Neurons, +TC-5619 @ EC90 [2]: 700 ± 0 pA
Rheobase Shift; Rat DRG Neurons, Baseline [2]: 141 ± 22 pA

B2: CODA1048: engineered chimeric LGIC receptor, R101F, Y210F in SEQ ID NO: 33 (protein)
chain: B1 chain with W101F, V210F
modifications: synthetic sequence of chimeric LGIC
YFP fluorescence quenching using CNL001 ([1]; 1 nM CNL001, first column): 9.114%
YFP fluorescence quenching using CNL001 ([1]; 1 nM CNL001, second column): 0.845%
YFP fluorescence quenching using TC-5619/Bradanicline ([1]; 1 nM brd): −2.084%
YFP fluorescence quenching using TC-5619/Bradanicline ([1]; 3 nM brd): −9.098%
YFP fluorescence quenching using Varenicline ([1]; 3 nM var, first column): −17.119
YFP fluorescence quenching using Varenicline ([1]; 3 nM var, second column): −13.234
YFP fluorescence quenching using CNL001 ([1]; 10 nM CNL001, first column): 28.944%
YFP fluorescence quenching using CNL001 ([1]; 10 nM CNL001, second column): 53.629%
YFP fluorescence quenching using TC-5619/Bradanicline ([1]; 10 nM brd): −2.587%
YFP fluorescence quenching using TC-5619/Bradanicline ([1]; 30 nM brd): 55.818%
YFP fluorescence quenching using Varenicline ([1]; 30 nM var, first column): −7.747
YFP fluorescence quenching using Varenicline ([1]; 30 nM var, second column): 4.193
YFP fluorescence quenching using CNL001 ([1]; 50 nM CNL001, first column): 68.581%
YFP fluorescence quenching using CNL001 ([1]; 50 nM CNL001, second column): 74.379%
YFP fluorescence quenching using ABT-126 ([1]; 50 nM abt): −23.28%
YFP fluorescence quenching using CNL001 ([1]; 100 nM CNL001, first column): 80.541%
YFP fluorescence quenching using CNL001 ([1]; 100 nM CNL001, second column): 80.774%
YFP fluorescence quenching using ABT-126 ([1]; 100 nM abt): −21.78%
YFP fluorescence quenching using TC-5619/Bradanicline ([1]; 100 nM brd): 76.957%
YFP fluorescence quenching using ABT-126 ([1]; 300 nM abt): −19.35%
YFP fluorescence quenching using TC-5619/Bradanicline ([1]; 300 nM brd): 74.268%
YFP fluorescence quenching using Varenicline ([1]; 300 nM var, first column): 4.149
YFP fluorescence quenching using Varenicline ([1]; 300 nM var, second column): 1.512
YFP fluorescence quenching using Varenicline ([1]; 500 nM var, first column): −1.572
YFP fluorescence quenching using Varenicline ([1]; 500 nM var, second column): 3.71
YFP fluorescence quenching using CNL001 ([1]; 1 uM CNL001, first column): 83.143%
YFP fluorescence quenching using CNL001 ([1]; 1 uM CNL001, second column): 81.751%
YFP fluorescence quenching using ABT-126 ([1]; 1 uM abt): −16.33%
YFP fluorescence quenching using Varenicline ([1]; 1 uM var, first column): 8.414
YFP fluorescence quenching using Varenicline ([1]; 1 uM var, second column): 4.091
percent quench of YFP fluorescence, 30 nM TC-6683 [1]: −29.055%
percent quench of YFP fluorescence, 300 nM TC-6683 [1]: −33.935%
percent quench of YFP fluorescence, 3 uM TC-6683 [1]: −24.613%
percent quench of YFP fluorescence, 30 uM TC-6683 [1]: −21.752%
percent quench of YFP fluorescence, 100 uM TC-6683 [1]: −22.815%
percent quench of YFP fluorescence, 100 uM ach [1]: −17.31%
percent quench of YFP fluorescence, 300 uM ach [1]: −13.7%
percent quench of YFP fluorescence, 500 uM ach [1]: −10.1%
percent quench of YFP fluorescence, 1 mM ach [1]: 5.53%
percent quench of YFP fluorescence, 3 mM ach [1]: 68.61%
percent quench of YFP fluorescence, 10 mM ach [1]: 78.22%
Rheobase Shift; Rat DRG Neurons, +TC-5619 @ EC90 [2]: 590 ± 46 pA
Rheobase Shift; Rat DRG Neurons, Baseline [2]: 120 ± 19 pA
